The record followed here is patent US20240115706A1 (LG CHEM, published 2024).

In experiment [1] the target is T1, human GUCY2C-rCD4 fusion protein (Homo sapiens (human); Rattus norvegicus, biotinylated (site not given)).
T1 construct: GUCY2C conjugated/fused with CD4; also called Hu-GUCY2C-rCD4; human GUCY2C recombinant antigen
Nature of the experiment: SPR (Sierra SPR-32), scFv on protein G, antigen 800-12.5 nM, 25 C. The method, then:
Furthermore, the affinity to the GUCY2C antigen of the 18 kinds of scFvs produced in Example 1 was measured by SPR (Surface plasmon resonance) analysis.
SPR assay was performed with association time 2 min and dissociation time 10 min under the condition of 25 degrees of Celsius using MASS2 (Sierra SPR-32; Bruker). The data were analyzed with Software R3.

Experiment [2] has as its target T1, human GUCY2C-rCD4 fusion protein. The experiment in a line: ELISA (DELFIA), antigen on streptavidin plate, scFv culture solution, Eu-anti-tag Ab. The method, then: (§1) More specifically, GUCY2C-rCD4 fusion protein, in which the prepared human GUCY2C (SEQ ID NO: 112), monkey GUCY2C (SEQ ID NO: 114), and mouse GUCY2C (SEQ ID NO: 113) were fused, respectively, was bound to a place coated with streptavidin in a Nunc Maxisorp™96 well plate. After removing all the synthetic proteins not combined with washing buffer, the anti-GUCY2C scFV obtained in the culture solution was incubated in each well. After that, the affinity was measured by reading signals DELFIA enhanced using Eu-anti-tag Ab.
For orientation: In an ELISA, binding on a coated surface is turned into a signal by an enzyme label.

The target of experiment [3] is T2, monkey GUCY2C-rCD4 fusion protein (Macaca fascicularis (crab-eating …, limits assumed)).
T2 construct: Prepared by the same method as the human antigen; also called Cy-GUCY2C-rCD4; monkey GUCY2C recombinant antigen
T2 chain: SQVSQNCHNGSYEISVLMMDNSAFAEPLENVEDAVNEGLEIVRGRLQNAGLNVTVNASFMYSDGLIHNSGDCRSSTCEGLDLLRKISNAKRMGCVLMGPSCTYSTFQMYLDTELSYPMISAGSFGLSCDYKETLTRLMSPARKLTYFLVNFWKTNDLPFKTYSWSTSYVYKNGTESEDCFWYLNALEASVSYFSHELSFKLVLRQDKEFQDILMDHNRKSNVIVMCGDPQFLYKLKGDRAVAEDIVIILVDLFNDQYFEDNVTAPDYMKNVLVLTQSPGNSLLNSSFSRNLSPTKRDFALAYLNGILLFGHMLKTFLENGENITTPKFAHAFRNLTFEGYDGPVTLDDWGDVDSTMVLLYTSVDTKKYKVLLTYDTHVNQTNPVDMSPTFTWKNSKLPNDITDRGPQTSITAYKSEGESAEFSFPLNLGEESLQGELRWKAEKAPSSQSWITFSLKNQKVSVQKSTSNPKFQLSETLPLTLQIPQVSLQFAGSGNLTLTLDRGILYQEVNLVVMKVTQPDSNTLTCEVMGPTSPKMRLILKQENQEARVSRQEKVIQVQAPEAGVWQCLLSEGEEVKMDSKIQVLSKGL
The description is as above. On the procedure: as §1

Experiment [4] concerns the target T3, mouse GUCY2C-rCD4 fusion protein (Mus musculus (house mouse); Rattus …, limits assumed).
T3 construct: Prepared by the same method as the human antigen; also called Mu-GUCY2C-rCD4; murine GUCY2C recombinant antigen
T3 chain: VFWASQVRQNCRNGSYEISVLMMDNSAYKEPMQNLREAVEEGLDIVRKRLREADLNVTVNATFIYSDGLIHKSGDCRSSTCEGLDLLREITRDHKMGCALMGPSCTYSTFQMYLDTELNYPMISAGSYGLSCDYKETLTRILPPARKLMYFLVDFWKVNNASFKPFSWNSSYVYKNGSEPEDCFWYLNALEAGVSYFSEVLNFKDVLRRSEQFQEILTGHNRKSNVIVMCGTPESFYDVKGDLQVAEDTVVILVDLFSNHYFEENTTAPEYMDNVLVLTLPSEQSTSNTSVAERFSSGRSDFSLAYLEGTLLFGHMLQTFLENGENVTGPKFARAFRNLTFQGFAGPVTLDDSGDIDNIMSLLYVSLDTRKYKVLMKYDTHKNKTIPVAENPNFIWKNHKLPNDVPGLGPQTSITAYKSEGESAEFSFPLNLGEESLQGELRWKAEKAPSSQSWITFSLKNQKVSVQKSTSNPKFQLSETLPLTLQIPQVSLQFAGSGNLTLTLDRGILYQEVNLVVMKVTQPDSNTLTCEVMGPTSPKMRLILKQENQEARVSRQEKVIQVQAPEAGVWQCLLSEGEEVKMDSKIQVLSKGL
Described as above. The method, then:
as §1

In experiment [5] the target is T1, human GUCY2C-rCD4 fusion protein. The experiment in a line: ranking ELISA (DELFIA), 5 nM scFv on anti-FLAG, biotinylated antigen, streptavidin-Eu. The method, then: (§2) More specifically, after coating an anti-FLAG antibody in a MaxiSorb plate and binding by adding scFvs obtained previously, the remaining scFvs were removed by a washing process. Here, a biotinylated human-GUCY2C-rCD4 protein was incubated and combined, and then the affinity to the antigen was measured by reading signals by DELFIA enhancement with color development through streptavidin-Europlum.

Experiment [6] shares this target. Nature of the experiment: ranking ELISA (DELFIA), 50 nM scFv on anti-FLAG, biotinylated antigen, streptavidin-Eu. The method, then: as §2

B1: scFv A07 (scFv)
scFv: QVQLQESGPGLVKPSETLSLTCTVSGGSISSYYWSWIRQPPGKGLEWIGSIYYSGSTNYNPSLKSRVTISRDKSKNQLFLKLNSMTAADTAVYYCARDVWGSGQSFDSWGQGTLVTVSSGGGGSGGGGSGGGASNFMLTQPHSVSESPGKTVTISCTRSSGSIASNYVQWYQQRLGSSPTTVIYEHSRRPSGVPDRFSASIDSSSNSASLTISGLKTEDEADYYCQSYDVSNRVFGGGTKLTVL
notes: also called 2427_01_C02
Consider B1, for which the Kd (commonly the concentration at which binding is half-saturated) in experiment [1] worked out at 3.73 µM. Moreover, the “Binding ELISA signal” value was determined as 79000 in experiment [2], 51100 in experiment [3] and 17100 in experiment [4]. In addition, the “Affinity Ranking ELISA (5 nM) signal” value in experiment [5] was 4740. Also, the “Affinity Ranking ELISA (50 nM) signal” value in experiment [6] was 27700.
